In patent US20090291081A1 (AbbVie / Abbott, published 2009):
Numbering of substitutions follows the chain as printed. One block for each binder: values may come before it.

Molecular target: T1, human IL-1α (human, UniProt P01583 113-271)
T1 construct: also called IL-1alpha; hIL-1α
T1 sequence (looked up): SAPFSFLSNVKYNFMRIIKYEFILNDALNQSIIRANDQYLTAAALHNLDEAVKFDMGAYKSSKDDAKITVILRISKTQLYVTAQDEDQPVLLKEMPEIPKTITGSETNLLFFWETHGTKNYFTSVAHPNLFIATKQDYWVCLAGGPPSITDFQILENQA
Test: Table 62 IC50; RBA presumed

B2: ABT1-139 (other)
VH: EVQLLESGGGLVQPGGSLRLSCAASGFTFSDYTMIWVRQAPGKGLEWVSSISARGWGTYYADSVKGRFTISRDNSKNTLYLQMNSLRAEDTAVYYCAKGSPQLVLPFDYWGQGTLVTVSS
notes: VH dAb
- IC50: 80 nM

B5: ABT1-95-144 (other)
VL: DIQMTQSPSSLSASVGDRVTITCRASQPIVRNLRWYQQKPGKAPKLLIYSSSYLSPGVPSRFSGSGSGTDFTLTISSLQPEDFATYHCQQGYRWPVTFGQGTKVEIKR
notes: VK dAb
- IC50: 0.5 nM

B8: ABT1-95-155 (other)
VL: B5 VL with Y49T, S55E, F83S
notes: VK dAb
- IC50: 10 nM

B9: ABT1-141-35 (other)
VL: DIQMTQSPSSLSASVGDRVTITCRASQWIQKQLAWYQQKPGKAPKLLIYSASWLQSGVPSRFSGSGSGTDFTLTISSLQPEDFATYYCQQHLRVPMTFGQGTKVEIKR
notes: VK dAb
- IC50: 10 nM

B11: ABT1-95-110 (other)
VL: B5 VL with S55E, P56A
notes: VK dAb
- IC50: 0.1 nM

B15: ABT1-95-140 (other)
VL: B5 VL with P28G, S55E
notes: VK dAb
- IC50: 0.2 nM

B16: ABT1-95-143 (other)
VL: B5 VL with Y49T, S55E
notes: VK dAb
- IC50: 10 nM

B17: ABT1-95-112 (other)
VL: B5 VL with S55E, P56N
notes: VK dAb
- IC50: 0.1 nM

B19: ABT1-95-141 (other)
VL: B5 VL with V30L, S55E
notes: VK dAb
- IC50: 1 nM

B21: ABT1-95-145 (other)
VL: B5 VL with R18H, S55V
notes: VK dAb
- IC50: 0.8 nM

B22: ABT1-95-124 (other)
VL: B5 VL with S55E, R93M
notes: VK dAb
- IC50: 0.2 nM

B23: ABT1-95-123 (other)
VL: B5 VL with S55E, R93A
notes: VK dAb
- IC50: 0.1 nM

B30: ABT1-154 (other)
VL: DIQMTQSPSSLSASVGDRVTITCRASTEIVRNLRWYQQKPGKAPKLLISGVSGLQSGVPSRFSGSGSGTDFTLTISSLQPEDFATYYCVQGYSWPVTFGQGTKVEIKR
notes: VK dAb
- IC50: > 1000 nM

B31: ABT1-95-142 (other)
VL: B5 VL with V30T, S55E
notes: VK dAb
- IC50: 0.5 nM

B32: ABT1-95-111 (other)
VL: B5 VL with S55E, P56D
notes: VK dAb
- IC50: < 0.1 nM

B33: ABT1-95-127 (other)
VL: B5 VL with S55E, S76G, V96I
notes: VK dAb
- IC50: 0.1 nM

B34: ABT1-141-54 (other)
VL: B9 VL with A51S, W53H
notes: VK dAb
- IC50: 3 nM

B36: ABT1-160 (other)
VL: B30 VL with K45N, S49W, V51G, G53T, W94L
notes: VK dAb
- IC50: 300 nM

B39: ABT1-95-130 (other)
VL: B5 VL with S55E, H87Y, R93L
notes: VK dAb
- IC50: > 1 nM

B41: ABT1-95-158 (other)
VL: B5 VL with Y49F, S55E
notes: VK dAb
- IC50: 0.5 nM

B43: ABT1-95-129 (other)
VL: B5 VL with S55E, Q79H, F83L
notes: VK dAb
- IC50: > 10 nM

B44: ABT1-137 (other)
VH: EVQLLESGGGLVQPGGSLRLSCAASGFTFERYWMAWVRQAPGKGLEWVSNINLTGSATYYADSVKGRFTISRDNSKNTLYLQMNSLRAEDTAVYYCAKGAFQFDYWGQGTLVTVSS
notes: VH dAb
- IC50: 200 nM

B45: ABT1-150 (other)
VL: DIQMTQSPSSLSASVGDRVTITCRASQSISSYLNWYQQKPGKAPKLLIGGVSGLQSGVPSRFSGSGSGTDFTLTISSLQPEDFATYYCMQWWRWPSTFGQGTKVEIKRAAAEQKLISEED
notes: VK dAb
- IC50: 150 nM

B46: ABT1-152 (other)
VL: B45 VL with V51R, S76G, W92Y, W94A
notes: VK dAb
- IC50: 300 nM

B48: ABT1-123 (other)
VL: DIQMTQSPSSLSASVGDRVTITCRASQSIWTELKWYQQKPGKAPKLLIYGASLLQSGVPSRFSGSGSGTDFTLTISSLQPEDFATYYCQQFAYHPHTFGQGTKVEIKR
notes: VK dAb
- IC50: > 500 nM

B49: ABT1-157 (other)
VL: DIQMTQSPSSLSASVGDRVTITCRASQSISSYLNWYQQKPGKAPKLLIGGVSGLQSGVPSRFSGSGSGTDFTLTISSLQPEDFATYYCMQWSRPPRTFGQGTKVEIKR
notes: VK dAb
- IC50: 300 nM

B51: ABT1-167 (other)
VL: B49 VL with V51L, S92W, P94Y, R96P
notes: VK dAb
- IC50: > 1000 nM

B54: ABT1-170 (other)
VL: B49 VL with V51R, M89K, S92Y, P94Y, R96S
notes: VK dAb
- IC50: > 1000 nM

Continued, values first:

- IC50: 300 nM
B1: ABT1-132 (other)
VL: DIQMTQSPSSLSASVGDRVTITCRASQNIATALLWYQQKPGKAPRLLIYDSSQLQSGVPSRFSGSGSGTDFTLTISSLQPEDFATYYCQQMYWVPFTFGQGTKVEIKR
notes: VK dAb

- IC50: 300 nM
B3: ABT1-130 (other)
VL: DIQMTQSPSSLSASVGDRVTITCRASQEIGLWLSWYQQKSGKAPKLLIYRHSSSQSGVPSRFSGSGSGTDFTLTISSLQPEDFATYYCQQTYKAPFTFGQGTKVEIKR
notes: VK dAb

- IC50: 0.1 nM
B4: ABT1-95-106 (other)
VL: B5 VL with S55E, P56R, T97A
notes: VK dAb

- IC50: 0.8 nM
B6: ABT1-95-152 (other)
VL: B5 VL with S26G, V30P, S55E
notes: VK dAb

- IC50: 0.1 nM
B7: ABT1-95-159 (other)
VL: B5 VL with V30A, S55E, G91V
notes: VK dAb

- IC50: > 1 nM
B10: ABT1-95-128 (other)
VL: B5 VL with S55E, V96G
notes: VK dAb

- IC50: 0.2 nM
B12: ABT1-95-114 (other)
VL: B5 VL with S55E, P56V
notes: VK dAb

- IC50: 80 nM
B13: ABT1-131 (other)
VL: DIQMTQSPSSLSASVGDRVTITCRASQRINGNLRWYQQKPGKAPKLLIYSVSQLQSGVPSRFSGSGSGTDFTLTISSLQPEDFATYYCQQGYDWPPTFGQGTKVETKR
notes: VK dAb

- IC50: 0.2 nM
B14: ABT1-95-150 (other)
VL: B5 VL with P28H, S55E
notes: VK dAb

- IC50: > 10 nM
B18: ABT1-95-154 (other)
VL: B5 VL with Y49S, S55E
notes: VK dAb

- IC50: 10 nM
B20: ABT1-95-156 (other)
VL: B5 VL with Y49A, S55E, Q89L
notes: VK dAb

- IC50: 10 nM
B24: ABT1-95-157 (other)
VL: B5 VL with Y49T, S55E, T69A
notes: VK dAb

- IC50: 20 nM
B25: ABT1-141-27 (other)
VL: B9 VL with A51S, W53Y, H91G, V94Q
notes: VK dAb

- IC50: 0.8 nM
B26: ABT1-95-126 (other)
VL: B5 VL with S55E, V96S
notes: VK dAb

- IC50: 0.2 nM
B27: ABT1-95-125 (other)
VL: B5 VL with S55E, V96L
notes: VK dAb

- IC50: 0.8 nM
B28: ABT1-95-146 (other)
VL: B5 VL with P28N, S55E
notes: VK dAb

- IC50: 0.1 nM
B29: ABT1-95-120 (other)
VL: B5 VL with V30A, S55E, G91V
notes: VK dAb

- IC50: 0.5 nM
B35: ABT1-95-108 (other)
VL: B5 VL with S55E, P56E
notes: VK dAb

- IC50: 30 nM
B37: ABT1-141-10 (other)
VL: B9 VL with A51S, W53Y, H91S, M96F
notes: VK dAb

- IC50: 0.5 nM
B38: ABT1-95-153 (other)
VL: B5 VL with V30I, S55E, D70G
notes: VK dAb

- IC50: 0.2 nM
B40: ABT1-95-147 (other)
VL: B5 VL with R24W, P28G, S55E
notes: VK dAb

- IC50: 0.2 nM
B42: ABT1-95-151 (other)
VL: B5 VL with S26G, S55E, G99D
notes: VK dAb

- IC50: 200 nM
B47: ABT1-151 (other)
VL: B45 VL with V51R, M89G, W92Y, W94H, S96A
notes: VK dAb

- IC50: > 1000 nM
B50: ABT1-166 (other)
VL: B49 VL with V51L, M89G, S92A, P94A, R96M
notes: VK dAb

- IC50: > 1000 nM
B52: ABT1-171 (other)
VL: B49 VL with V51R, S92F
notes: VK dAb

- IC50: > 1000 nM
B53: ABT1-168 (other)
VL: B49 VL with V51L, M89L, S92F, R93S, P94E, R96A
notes: VK dAb
